Test results from IntAct's records for PubMed 19468300.

B1: Protein ECT2 (Homo sapiens), Q9H8V3-4 (parent)
chain: MAENSVLTSTTGRTSLADSSIFDSKVTEISKENLLIGSTSYVEEEMPQIETRVILVQEAGKQEELIKALKDIKVGFVKMESVEEFEGLDSPEFENVFVVTDFQDSVFNDLYKADCRVIGPPVVLNCSQKGEPLPFSCRPLYCTSMMNLVLCFTGFRKKEELVRLVTLVHHMGGVIRKDFNSKVTHLVANCTQGEKFRVAVSLGTPIMKPEWIYKAWERRNEQDFYAAVDDFRNEFKVPPFQDCILSFLGFSDEEKTNMEEMTEMQGGKYLPLGDERCTHLVVEENIVKDLPFEPSKKLYVVKQEWFWGSIQMDARAGETMYLYEKANTPELKKSVSMLSLNTPNSNRKRRRLKETLAQLSRETDVSPFPPRKRPSAEHSLSIGSLLDISNTPESSINYGDTPKSCTKSSKSSTPVPSKQSARWQVAKELYQTESNYVNILATIIQLFQVPLEEEGQRGGPILAPEEIKTIFGSIPDIFDVHTKIKDDLEDLIVNWDESKSIGDIFLKYSKDLVKTYPPFVNFFEMSKETIIKCEKQKPRFHAFLKINQAKPECGRQSLVELLIRPVQRLPSVALLLNDLKKHTADENPDKSTLEKAIGSLKEVMTHINEDKRKTEAQKQIFDVVYEVDGCPANLLSSHRSLVQRVETISLGEHPCDRGEQVTLFLFNDCLEIARKRHKVIGTFRSPHGQTRPPASLKHIHLMPLSQIKKVLDIRETEDCHNAFALLVRPPTEQANVLLSFQMTSDELPKENWLKMLCRHVANTICKADAENLIYTADPESFEVNTKDMDSTLSRASRAIKKTSKKVTRAFSFSKTPKRALRRALMTSHGSVEGRSPSSNDKHVMSRLSSTSSLAGIPSPSLVSLPSFFERRSHTLSRSTTHLI
partner: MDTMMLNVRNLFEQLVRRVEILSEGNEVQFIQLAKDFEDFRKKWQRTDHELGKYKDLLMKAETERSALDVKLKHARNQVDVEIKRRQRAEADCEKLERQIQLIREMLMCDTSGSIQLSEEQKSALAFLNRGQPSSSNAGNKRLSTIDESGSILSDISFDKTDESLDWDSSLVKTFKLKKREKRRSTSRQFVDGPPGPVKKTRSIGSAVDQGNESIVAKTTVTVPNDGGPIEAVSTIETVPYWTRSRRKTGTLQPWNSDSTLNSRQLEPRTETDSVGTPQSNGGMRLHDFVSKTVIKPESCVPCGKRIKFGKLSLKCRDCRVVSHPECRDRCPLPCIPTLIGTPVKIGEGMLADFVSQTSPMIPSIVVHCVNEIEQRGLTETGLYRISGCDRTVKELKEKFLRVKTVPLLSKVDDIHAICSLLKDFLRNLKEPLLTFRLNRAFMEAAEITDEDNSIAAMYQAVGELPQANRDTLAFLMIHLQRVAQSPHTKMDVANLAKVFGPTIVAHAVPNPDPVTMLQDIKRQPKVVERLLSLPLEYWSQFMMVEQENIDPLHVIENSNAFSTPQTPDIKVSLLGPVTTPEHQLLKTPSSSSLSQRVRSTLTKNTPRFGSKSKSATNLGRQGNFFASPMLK
B2: Rac GTPase-activating protein 1 (Homo sapiens), Q9H0H5 (parent)
chain: B1 partner
partner: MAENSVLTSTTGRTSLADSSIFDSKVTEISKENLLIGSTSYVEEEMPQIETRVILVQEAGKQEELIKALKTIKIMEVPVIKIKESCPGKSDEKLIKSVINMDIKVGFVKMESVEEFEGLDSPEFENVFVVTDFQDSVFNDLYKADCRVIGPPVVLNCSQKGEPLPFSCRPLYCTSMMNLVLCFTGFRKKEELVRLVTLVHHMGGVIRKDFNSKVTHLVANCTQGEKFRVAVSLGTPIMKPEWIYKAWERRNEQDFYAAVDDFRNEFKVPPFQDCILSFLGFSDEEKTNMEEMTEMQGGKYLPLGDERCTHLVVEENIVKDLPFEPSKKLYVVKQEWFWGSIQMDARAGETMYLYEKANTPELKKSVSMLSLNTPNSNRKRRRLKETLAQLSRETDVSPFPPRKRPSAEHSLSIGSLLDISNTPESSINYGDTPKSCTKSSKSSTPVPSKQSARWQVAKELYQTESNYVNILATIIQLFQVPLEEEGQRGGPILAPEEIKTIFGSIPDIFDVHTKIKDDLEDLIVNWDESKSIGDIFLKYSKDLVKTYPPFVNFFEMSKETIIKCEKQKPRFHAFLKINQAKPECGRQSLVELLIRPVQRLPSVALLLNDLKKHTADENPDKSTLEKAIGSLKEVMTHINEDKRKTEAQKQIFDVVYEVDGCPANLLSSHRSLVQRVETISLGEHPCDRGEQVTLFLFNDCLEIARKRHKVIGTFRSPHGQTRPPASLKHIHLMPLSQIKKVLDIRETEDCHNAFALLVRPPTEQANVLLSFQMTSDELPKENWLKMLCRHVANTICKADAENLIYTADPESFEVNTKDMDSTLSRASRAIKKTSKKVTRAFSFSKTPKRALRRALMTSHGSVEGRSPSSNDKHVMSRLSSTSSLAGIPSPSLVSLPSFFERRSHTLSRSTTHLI
B3: Protein regulator of cytokinesis 1 (Homo sapiens), O43663 (parent)
chain: MRRSEVLAEESIVCLQKALNHLREIWELIGIPEDQRLQRTEVVKKHIKELLDMMIAEEESLKERLIKSISVCQKELNTLCSELHVEPFQEEGETTILQLEKDLRTQVELMRKQKKERKQELKLLQEQDQELCEILCMPHYDIDSASVPSLEELNQFRQHVTTLRETKASRREEFVSIKRQIILCMEALDHTPDTSFERDVVCEDEDAFCLSLENIATLQKLLRQLEMQKSQNEAVCEGLRTQIRELWDRLQIPEEEREAVATIMSGSKAKVRKALQLEVDRLEELKMQNMKKVIEAIRVELVQYWDQCFYSQEQRQAFAPFCAEDYTESLLQLHDAEIVRLKNYYEVHKELFEGVQKWEETWRLFLEFERKASDPNRFTNRGGNLLKEEKQRAKLQKMLPKLEEELKARIELWEQEHSKAFMVNGQKFMEYVAEQWEMHRLEKERAKQERQLKNKKQTETEMLYGSAPRTPSKRRGLAPNTPGKARKLNTTTMSNATANSSIRPIFGGTVYHSPVSRLPPSGSKPVAASTCSGKKTPRTGRHGANKENLELNGSILSGGYPGSAPLQRNFSINSVASTYSEFAKDPSLSDSSTVGLQRELSKASKSDATSGILNSTNIQS

Variants of: B1
Conditions: with rgap1_human RACGAP1, Q9H0H5

| Variant | effect of a mutation on the interaction |
| --- | --- |
| T153A;K195A | disrupting interaction strength |
| T153A | disrupting interaction strength |
| K195A | disrupting interaction |

Variants of: B2
Conditions: with ect2_human ECT2, Q9H8V3

| Variant | effect of a mutation on the interaction |
| --- | --- |
| S149A;S157A;S164A;S170A | disrupting interaction |

Variants of: B3
Conditions: with plk1_human PLK1, P53350
Sequence of plk1_human PLK1, P53350 (P53350 whole entry): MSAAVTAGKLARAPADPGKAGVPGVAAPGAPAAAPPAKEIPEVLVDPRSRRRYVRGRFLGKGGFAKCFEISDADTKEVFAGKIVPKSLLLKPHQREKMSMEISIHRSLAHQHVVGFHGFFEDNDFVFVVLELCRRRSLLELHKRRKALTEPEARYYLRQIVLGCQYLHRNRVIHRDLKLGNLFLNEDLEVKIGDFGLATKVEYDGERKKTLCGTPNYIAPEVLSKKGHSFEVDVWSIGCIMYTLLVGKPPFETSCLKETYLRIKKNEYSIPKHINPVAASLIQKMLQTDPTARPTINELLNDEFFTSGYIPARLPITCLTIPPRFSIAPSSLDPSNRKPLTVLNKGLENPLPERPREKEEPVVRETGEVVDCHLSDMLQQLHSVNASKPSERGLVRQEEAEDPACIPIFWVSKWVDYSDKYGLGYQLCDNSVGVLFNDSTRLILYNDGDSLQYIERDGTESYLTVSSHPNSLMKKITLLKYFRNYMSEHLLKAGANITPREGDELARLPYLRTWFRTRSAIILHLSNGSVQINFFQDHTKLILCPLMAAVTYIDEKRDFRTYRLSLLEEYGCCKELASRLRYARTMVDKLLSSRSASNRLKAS

| Variant | effect of a mutation on the interaction |
| --- | --- |
| S615A;T616A | disrupting interaction strength |
